According to IntAct's records for PubMed 25910212:

B1: Keratin, type II cytoskeletal 6A (Homo sapiens), P02538 (parent)
chain: MASTSTTIRSHSSSRRGFSANSARLPGVSRSGFSSVSVSRSRGSGGLGGACGGAGFGSRSLYGLGGSKRISIGGGSCAISGGYGSRAGGSYGFGGAGSGFGFGGGAGIGFGLGGGAGLAGGFGGPGFPVCPPGGIQEVTVNQSLLTPLNLQIDPTIQRVRAEEREQIKTLNNKFASFIDKVRFLEQQNKVLETKWTLLQEQGTKTVRQNLEPLFEQYINNLRRQLDSIVGERGRLDSELRGMQDLVEDFKNKYEDEINKRTAAENEFVTLKKDVDAAYMNKVELQAKADTLTDEINFLRALYDAELSQMQTHISDTSVVLSMDNNRNLDLDSIIAEVKAQYEEIAQRSRAEAESWYQTKYEELQVTAGRHGDDLRNTKQEIAEINRMIQRLRSEIDHVKKQCANLQAAIADAEQRGEMALKDAKNKLEGLEDALQKAKQDLARLLKEYQELMNVKLALDVEIATYRKLLEGEECRLNGEGVGQVNISVVQSTVSSGYGGASGVGSGLGLGGGSSYSYGSGLGVGGGFSSSSGRAIGGGLSSVGGGSSTIKYTTTSSSSRKSYKH
partner: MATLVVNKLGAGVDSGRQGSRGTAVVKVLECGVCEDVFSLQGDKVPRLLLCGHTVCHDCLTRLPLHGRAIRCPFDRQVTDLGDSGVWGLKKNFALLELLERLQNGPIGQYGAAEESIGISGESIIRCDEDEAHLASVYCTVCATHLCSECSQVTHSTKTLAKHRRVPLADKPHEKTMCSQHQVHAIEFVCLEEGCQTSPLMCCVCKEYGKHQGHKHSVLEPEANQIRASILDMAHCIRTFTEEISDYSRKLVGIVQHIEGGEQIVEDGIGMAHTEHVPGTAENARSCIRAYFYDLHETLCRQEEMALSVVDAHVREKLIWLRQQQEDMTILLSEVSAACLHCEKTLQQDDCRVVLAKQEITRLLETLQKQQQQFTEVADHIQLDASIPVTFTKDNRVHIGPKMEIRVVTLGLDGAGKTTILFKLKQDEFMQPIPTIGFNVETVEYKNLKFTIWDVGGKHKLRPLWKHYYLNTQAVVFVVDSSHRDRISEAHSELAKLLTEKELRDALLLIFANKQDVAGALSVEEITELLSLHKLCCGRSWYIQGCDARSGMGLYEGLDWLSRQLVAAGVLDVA
B2: Beta-crystallin A4 (Homo sapiens), P53673 (parent)
chain: MTLQCTKSAGPWKMVVWDEDGFQGRRHEFTAECPSVLELGFETVRSLKVLSGAWVGFEHAGFQGQQYILERGEYPSWDAWGGNTAYPAERLTSFRPAACANHRDSRLTIFEQENFLGKKGELSDDYPSLQAMGWEGNEVGSFHVHSGAWVCSQFPGYRGFQYVLECDHHSGDYKHFREWGSHAPTFQVQSIRRIQQ
partner: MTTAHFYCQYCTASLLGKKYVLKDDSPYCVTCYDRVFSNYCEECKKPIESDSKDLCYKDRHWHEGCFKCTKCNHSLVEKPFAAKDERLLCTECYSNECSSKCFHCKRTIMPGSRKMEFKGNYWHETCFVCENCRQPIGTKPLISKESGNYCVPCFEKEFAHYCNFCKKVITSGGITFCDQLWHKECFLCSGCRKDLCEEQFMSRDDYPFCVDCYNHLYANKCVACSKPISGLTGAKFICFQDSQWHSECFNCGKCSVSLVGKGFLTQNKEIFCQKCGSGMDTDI
B3: F-box only protein 7 (Homo sapiens), Q9Y3I1 (parent)
chain: MRLRVRLLKRTWPLEVPETEPTLGHLRSHLRQSLLCTWGYSSNTRFTITLNYKDPLTGDEETLASYGIVSGDLICLILQDDIPAPNIPSSTDSEHSSLQNNEQPSLATSSNQTSMQDEQPSDSFQGQAAQSGVWNDDSMLGPSQNFEAESIQDNAHMAEGTGFYPSEPMLCSESVEGQVPHSLETLYQSADCSDANDALIVLIHLLMLESGYIPQGTEAKALSMPEKWKLSGVYKLQYMHPLCEGSSATLTCVPLGNLIVVNATLKINNEIRSVKRLQLLPESFICKEKLGENVANIYKDLQKLSRLFKDQLVYPLLAFTRQALNLPDVFGLVVLPLELKLRIFRLLDVRSVLSLSAVCRDLFTASNDPLLWRFLYLRDFRDNTVRVQDTDWKELYRKRHIQRKESPKGRFVMLLPSSTHTIPFYPNPLHPRPFPSSRLPPGIIGGEYDQRPTLPYVGDPISSLIPGPGETPSQFPPLRPRFDPVGPLPGPNPILPGRGGPNDRFPFRPSRGRPTDGRLSFM
B4: Beta-crystallin B1 (Homo sapiens), P53674 (parent)
chain: MSQAAKASASATVAVNPGPDTKGKGAPPAGTSPSPGTTLAPTTVPITSAKAAELPPGNYRLVVFELENFQGRRAEFSGECSNLADRGFDRVRSIIVSAGPWVAFEQSNFRGEMFILEKGEYPRWNTWSSSYRSDRLMSFRPIKMDAQEHKISLFEGANFKGNTIEIQGDDAPSLWVYGFSDRVGSVKVSSGTWVGYQYPGYRGYQYLLEPGDFRHWNEWGAFQPQMQSLRRLRDKQWHLEGSFPVLATEPPK
partner: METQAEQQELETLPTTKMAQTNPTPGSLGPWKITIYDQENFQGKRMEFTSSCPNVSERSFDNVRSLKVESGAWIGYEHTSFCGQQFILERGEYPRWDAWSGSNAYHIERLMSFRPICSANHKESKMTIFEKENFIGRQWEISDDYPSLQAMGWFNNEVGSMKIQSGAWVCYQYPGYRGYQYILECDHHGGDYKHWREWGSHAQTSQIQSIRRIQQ
B5: U4/U6 small nuclear ribonucleoprotein Prp31 (Homo sapiens), Q8WWY3 (parent)
chain: MSLADELLADLEEAAEEEEGGSYGEEEEEPAIEDVQEETQLDLSGDSVKTIAKLWDSKMFAEIMMKIEEYISKQAKASEVMGPVEAAPEYRVIVDANNLTVEIENELNIIHKFIRDKYSKRFPELESLVPNALDYIRTVKELGNSLDKCKNNENLQQILTNATIMVVSVTASTTQGQQLSEEELERLEEACDMALELNASKHRIYEYVESRMSFIAPNLSIIIGASTAAKIMGVAGGLTNLSKMPACNIMLLGAQRKTLSGFSSTSVLPHTGYIYHSDIVQSLPPDLRRKAARLVAAKCTLAARVDSFHESTEGKVGYELKDEIERKFDKWQEPPPVKQVKPLPAPLDGQRKKRGGRRYRKMKERLGLTEIRKQANRMSFGEIEEDAYQEDLGFSLGHLGKSGSGRVRQTQVNEATKARISKTLQRTLQKQSVVYGGKSTIRDRSSGTASSVAFTPLQGLEIVNPQAAEKKVAEANQKYFSSMAEFLKVKGEKSGLMST
partner: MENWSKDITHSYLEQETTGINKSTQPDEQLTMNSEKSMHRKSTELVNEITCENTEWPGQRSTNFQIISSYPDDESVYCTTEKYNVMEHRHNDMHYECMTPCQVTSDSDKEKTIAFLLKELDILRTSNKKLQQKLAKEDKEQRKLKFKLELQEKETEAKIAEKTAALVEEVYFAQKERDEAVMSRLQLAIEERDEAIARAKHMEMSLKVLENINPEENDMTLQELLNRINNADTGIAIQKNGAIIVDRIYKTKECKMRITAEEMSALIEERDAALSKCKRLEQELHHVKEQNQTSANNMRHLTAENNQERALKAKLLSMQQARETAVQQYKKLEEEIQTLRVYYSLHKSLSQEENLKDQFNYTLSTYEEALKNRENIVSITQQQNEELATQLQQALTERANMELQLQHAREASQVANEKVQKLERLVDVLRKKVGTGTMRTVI
B6: 2'-5'-oligoadenylate synthase 1 (Homo sapiens), P00973-2 (parent)
chain: MMDLRNTPAKSLDKFIEDYLLPDTCFRMQINHAIDIICGFLKERCFRGSSYPVCVSKVVKGGSSGKGTTLRGRSDADLVVFLSPLTTFQDQLNRRGEFIQEIRRQLEACQRERAFSVKFEVQAPRWGNPRALSFVLSSLQLGEGVEFDVLPAFDALGQLTGGYKPNPQIYVKLIEECTDLQKEGEFSTCFTELQRDFLKQRPTKLKSLIRLVKHWYQNCKKKLGKLPPQYALELLTVYAWERGSMKTHFNTAQGFRTVLELVINYQQLCIYWTKYYDFKNPIIEKYLRRQLTKPRPVILDPADPTGNLGGGDPKGWRQLAQEAEAWLNYPCFKNWDGSPVSSWILLVRPPASSLPFIPAPLHEA
partner: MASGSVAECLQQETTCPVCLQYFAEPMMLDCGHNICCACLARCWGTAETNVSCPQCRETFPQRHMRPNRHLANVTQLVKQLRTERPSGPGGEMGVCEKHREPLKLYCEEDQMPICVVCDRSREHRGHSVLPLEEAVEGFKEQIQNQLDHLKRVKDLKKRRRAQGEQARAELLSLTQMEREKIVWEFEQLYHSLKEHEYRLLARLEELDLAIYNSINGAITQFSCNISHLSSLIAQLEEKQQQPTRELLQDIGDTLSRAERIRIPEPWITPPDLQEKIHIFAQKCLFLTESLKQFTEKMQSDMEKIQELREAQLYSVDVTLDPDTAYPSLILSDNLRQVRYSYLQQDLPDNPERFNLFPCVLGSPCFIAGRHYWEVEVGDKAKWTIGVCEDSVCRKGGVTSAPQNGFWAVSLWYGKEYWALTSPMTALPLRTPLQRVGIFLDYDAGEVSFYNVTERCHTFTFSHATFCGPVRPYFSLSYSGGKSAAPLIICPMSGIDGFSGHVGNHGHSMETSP
B7: Neurogenin-3 (Homo sapiens), Q9Y4Z2 (parent)
chain: MTPQPSGAPTVQVTRETERSFPRASEDEVTCPTSAPPSPTRTRGNCAEAEEGGCRGAPRKLRARRGGRSRPKSELALSKQRRSRRKKANDRERNRMHNLNSALDALRGVLPTFPDDAKLTKIETLRFAHNYIWALTQTLRIADHSLYALEPPAPHCGELGSPGGSPGDWGSLYSPVSQAGSLSPAASLEERPGLLGATFSACLSPGSLAFSDFL
B8: Emerin (Homo sapiens), P50402 (parent)
chain: MDNYADLSDTELTTLLRRYNIPHGPVVGSTRRLYEKKIFEYETQRRRLSPPSSSAASSYSFSDLNSTRGDADMYDLPKKEDALLYQSKGYNDDYYEESYFTTRTYGEPESAGPSRAVRQSVTSFPDADAFHHQVHDDDLLSSSEEECKDRERPMYGRDSAYQSITHYRPVSASRSSLDLSYYPTSSSTSFMSSSSSSSSWLTRRAIRPENRAPGAGLGQDRQVPLWGQLLLFLVFVIVLFFIYHFMQAEEGNPF
partner: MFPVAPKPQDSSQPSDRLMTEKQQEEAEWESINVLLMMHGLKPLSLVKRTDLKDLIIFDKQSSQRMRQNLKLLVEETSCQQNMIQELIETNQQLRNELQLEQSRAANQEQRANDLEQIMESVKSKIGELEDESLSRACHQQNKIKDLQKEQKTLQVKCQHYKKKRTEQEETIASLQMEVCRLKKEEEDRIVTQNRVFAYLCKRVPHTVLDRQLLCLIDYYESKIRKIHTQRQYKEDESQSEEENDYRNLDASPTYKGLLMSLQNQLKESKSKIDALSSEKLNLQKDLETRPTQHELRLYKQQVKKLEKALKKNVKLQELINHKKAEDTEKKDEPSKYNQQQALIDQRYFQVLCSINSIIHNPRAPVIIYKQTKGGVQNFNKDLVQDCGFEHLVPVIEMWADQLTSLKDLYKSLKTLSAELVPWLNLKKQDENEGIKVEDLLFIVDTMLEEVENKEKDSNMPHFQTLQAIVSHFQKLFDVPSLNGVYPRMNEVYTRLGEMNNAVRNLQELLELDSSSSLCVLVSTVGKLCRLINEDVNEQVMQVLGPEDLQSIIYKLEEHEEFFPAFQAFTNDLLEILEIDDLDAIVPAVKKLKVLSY
B9: Neutrophil cytosol factor 2 (Homo sapiens), P19878 (parent)
chain: MSLVEAISLWNEGVLAADKKDWKGALDAFSAVQDPHSRICFNIGCMYTILKNMTEAEKAFTRSINRDKHLAVAYFQRGMLYYQTEKYDLAIKDLKEALIQLRGNQLIDYKILGLQFKLFACEVLYNIAFMYAKKEEWKKAEEQLALATSMKSEPRHSKIDKAMECVWKQKLYEPVVIPVGKLFRPNERQVAQLAKKDYLGKATVVASVVDQDSFSGFAPLQPQAAEPPPRPKTPEIFRALEGEAHRVLFGFVPETKEELQVMPGNIVFVLKKGNDNWATVMFNGQKGLVPCNYLEPVELRIHPQQQPQEESSPQSDIPAPPSSKAPGRPQLSPGQKQKEEPKEVKLSVPMPYTLKVHYKYTVVMKTQPGLPYSQVRDMVSKKLELRLEHTKLSYRPRDSNELVPLSEDSMKDAWGQVKNYCLTLWCENTVGDQGFPDEPKESEKADANNQTTEPQLKKGSQVEALFSYEATQPEDLEFQEGDIILVLSKVNEEWLEGECKGKVGIFPKVFVEDCATTDLESTRREV

Variants of: B1
Details: with tri23_human TRIM23, P36406

| effect of a mutation on the interaction | Variant |
| --- | --- |
| with no effect | F174V |
| with no effect | N21S |
| disrupting interaction strength | A463P |
| with no effect | T552S |

Variants of: B2
Details: with fhl5_human FHL5, Q5TD97

| Variant | effect of a mutation on the interaction |
| --- | --- |
| V36M | disrupting interaction strength |
| L69P | disrupting interaction strength |
| F94S | disrupting interaction strength |

Variants of: B3
Details: with psa3_human PSMA3, P25788
psa3_human PSMA3, P25788, sequence (P25788 whole entry): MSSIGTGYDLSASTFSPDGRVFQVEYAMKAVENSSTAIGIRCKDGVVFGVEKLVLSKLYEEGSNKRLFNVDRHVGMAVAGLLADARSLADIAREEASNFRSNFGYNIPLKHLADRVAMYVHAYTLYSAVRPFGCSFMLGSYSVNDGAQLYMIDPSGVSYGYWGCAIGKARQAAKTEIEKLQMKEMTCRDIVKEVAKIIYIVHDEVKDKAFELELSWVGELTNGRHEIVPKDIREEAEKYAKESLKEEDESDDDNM

| effect of a mutation on the interaction | Variant |
| --- | --- |
| disrupting interaction strength | T22M |

Variants of: B4
Details: with crba1_human CRYBA1, P05813

| effect of a mutation on the interaction | Variant |
| --- | --- |
| disrupting interaction strength | S228P |

Variants of: B5
Details: with mipo1_human MIPOL1, Q8TD10

| Variant | effect of a mutation on the interaction |
| --- | --- |
| L107V | with no effect |

Variants of: B6
Details: with tri27_human TRIM27, P14373

| effect of a mutation on the interaction | Variant |
| --- | --- |
| with no effect | R242Q |

Variants of: B7
Details: with TCF12, Q99081-3
TCF12, Q99081-3, sequence (Q99081 other isoform, or with tags, fused parts or gaps): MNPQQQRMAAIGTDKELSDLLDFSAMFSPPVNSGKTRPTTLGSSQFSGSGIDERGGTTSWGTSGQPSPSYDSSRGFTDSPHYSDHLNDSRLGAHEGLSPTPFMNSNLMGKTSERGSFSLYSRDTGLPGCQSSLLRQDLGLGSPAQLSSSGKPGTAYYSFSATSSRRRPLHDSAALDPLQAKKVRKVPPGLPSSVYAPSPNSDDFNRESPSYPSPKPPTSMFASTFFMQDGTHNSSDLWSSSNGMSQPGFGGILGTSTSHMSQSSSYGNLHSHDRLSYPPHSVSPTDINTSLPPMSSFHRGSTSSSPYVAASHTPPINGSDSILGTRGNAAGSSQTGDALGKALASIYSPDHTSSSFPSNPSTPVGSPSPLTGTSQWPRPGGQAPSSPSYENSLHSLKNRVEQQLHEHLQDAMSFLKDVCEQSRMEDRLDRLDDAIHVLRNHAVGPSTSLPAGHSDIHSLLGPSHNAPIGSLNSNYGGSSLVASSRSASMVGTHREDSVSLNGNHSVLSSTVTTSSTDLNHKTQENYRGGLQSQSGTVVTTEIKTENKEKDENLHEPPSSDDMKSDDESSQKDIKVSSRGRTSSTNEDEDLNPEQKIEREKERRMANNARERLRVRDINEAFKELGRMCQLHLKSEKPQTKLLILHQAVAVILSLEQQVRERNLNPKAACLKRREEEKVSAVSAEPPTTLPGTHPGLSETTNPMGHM

| effect of a mutation on the interaction | Variant |
| --- | --- |
| disrupting interaction strength | F199S |
| disrupting interaction strength | G167R |

Variants of: B8
Details: with cep70_human CEP70, Q8NHQ1

| effect of a mutation on the interaction | Variant |
| --- | --- |
| with no effect | D72V |
| with no effect | P183H |
| with no effect | P183T |
| with no effect | S54F |

Variants of: B9
Details: with goga2_human GOLGA2, Q08379
goga2_human GOLGA2, Q08379, sequence (Q08379 whole entry): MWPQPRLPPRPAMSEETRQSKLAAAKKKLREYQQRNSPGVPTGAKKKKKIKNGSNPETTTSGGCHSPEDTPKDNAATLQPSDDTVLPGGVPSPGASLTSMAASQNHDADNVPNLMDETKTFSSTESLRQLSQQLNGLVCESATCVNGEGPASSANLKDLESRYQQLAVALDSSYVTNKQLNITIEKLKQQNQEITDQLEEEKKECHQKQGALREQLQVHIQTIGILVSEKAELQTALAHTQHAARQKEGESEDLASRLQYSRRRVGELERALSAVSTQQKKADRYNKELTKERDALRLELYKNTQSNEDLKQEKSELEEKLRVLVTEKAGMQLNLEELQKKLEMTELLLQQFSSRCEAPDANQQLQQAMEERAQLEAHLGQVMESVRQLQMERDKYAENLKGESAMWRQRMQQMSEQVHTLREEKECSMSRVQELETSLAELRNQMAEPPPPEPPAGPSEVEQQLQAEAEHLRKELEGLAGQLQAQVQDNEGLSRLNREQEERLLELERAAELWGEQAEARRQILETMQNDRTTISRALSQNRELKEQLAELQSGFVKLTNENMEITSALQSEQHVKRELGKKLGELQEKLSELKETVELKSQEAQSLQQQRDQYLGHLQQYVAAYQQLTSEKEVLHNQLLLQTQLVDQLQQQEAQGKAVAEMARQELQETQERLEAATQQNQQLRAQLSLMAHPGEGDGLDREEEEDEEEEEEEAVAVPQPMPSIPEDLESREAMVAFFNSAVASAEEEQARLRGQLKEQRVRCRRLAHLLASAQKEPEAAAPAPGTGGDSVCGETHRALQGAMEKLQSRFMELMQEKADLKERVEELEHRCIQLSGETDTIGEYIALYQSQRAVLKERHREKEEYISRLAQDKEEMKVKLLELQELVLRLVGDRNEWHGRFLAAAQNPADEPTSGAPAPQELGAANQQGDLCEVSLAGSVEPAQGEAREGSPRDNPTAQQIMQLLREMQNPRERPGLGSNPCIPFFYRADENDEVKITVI

| effect of a mutation on the interaction | Variant |
| --- | --- |
| disrupting interaction strength | R77Q |

Variants of: B9
Details: with kifa3_human KIFAP3, Q92845
kifa3_human KIFAP3, Q92845, sequence (Q92845 whole entry): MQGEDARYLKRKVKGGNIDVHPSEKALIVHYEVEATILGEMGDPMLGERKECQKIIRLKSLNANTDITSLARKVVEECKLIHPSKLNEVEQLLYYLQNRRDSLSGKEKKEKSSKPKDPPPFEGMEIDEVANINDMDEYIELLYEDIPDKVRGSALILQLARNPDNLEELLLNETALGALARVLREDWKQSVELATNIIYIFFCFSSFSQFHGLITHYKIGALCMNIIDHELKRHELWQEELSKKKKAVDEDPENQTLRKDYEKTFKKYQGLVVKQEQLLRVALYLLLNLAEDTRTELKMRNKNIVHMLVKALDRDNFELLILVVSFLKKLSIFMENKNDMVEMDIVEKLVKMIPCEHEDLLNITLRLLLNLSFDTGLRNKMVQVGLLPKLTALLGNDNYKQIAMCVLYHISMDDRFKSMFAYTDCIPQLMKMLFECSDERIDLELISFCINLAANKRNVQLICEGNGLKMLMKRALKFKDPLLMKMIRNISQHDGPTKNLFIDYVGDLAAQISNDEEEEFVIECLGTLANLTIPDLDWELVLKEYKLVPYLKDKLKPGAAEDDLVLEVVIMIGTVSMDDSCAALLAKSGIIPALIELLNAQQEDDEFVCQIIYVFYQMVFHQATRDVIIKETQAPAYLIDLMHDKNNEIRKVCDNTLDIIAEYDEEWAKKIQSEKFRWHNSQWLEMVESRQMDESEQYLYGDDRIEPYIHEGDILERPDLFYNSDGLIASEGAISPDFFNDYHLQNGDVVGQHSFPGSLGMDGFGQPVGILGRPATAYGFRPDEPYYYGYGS

| effect of a mutation on the interaction | Variant |
| --- | --- |
| disrupting interaction strength | R77Q |
